B1: MGC27345 (parent)
chain: KYMPHLCQDSSGEVSCQCQLHPPR

Variants of: B1
Experiment: protein stability index of a GFP-peptide fusion (GPS, HEK-293T) (PSI 1-6); higher = more stable
Conditions: c terminus: a fixed tail appended
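Further: lentivirally expressed fusions sorted by FACS into six bins by GFP to DsRed ratio, PSI derived from sequencing read proportions per bin multiplied by bin number.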

Question: For KYMPHLCQDSSGEVSCQCQLHPPS, which protein stability index is on record?
Answer: 4.29

Question: For KYMPHLCQDSSGEVSCQCQLHPPH, which protein stability index is on record?
Answer: 4.04

Question: For KYMPHLCQDSSGEVSCQCQLHPPA, which protein stability index is on record?
Answer: 3.79

Question: With KYMPHLCQDSSGEVSCQCQLHPPQ as the variant, how does the protein stability index read?
Answer: 4.05

Question: For KYMPHLCQDSSGEVSCQCQLHPPT, which protein stability index is on record?
Answer: 3.99

Question: With KYMPHLCQDSSGEVSCQCQLHPPW as the variant, how does the protein stability index read?
Answer: 2.89

Question: Which protein stability index does the source give for KYMPHLCQDSSGEVSCQCQLHPPD here?
Answer: 4.59

Question: Which protein stability index does the source give for KYMPHLCQDSSGEVSCQCQLHPPC here?
Answer: 3.86

Question: With KYMPHLCQDSSGEVSCQCQLHPPG as the variant, how does the protein stability index read?
Answer: 4.32

Question: For KYMPHLCQDSSGEVSCQCQLHPPI, which protein stability index is on record?
Answer: 3.75

Question: For KYMPHLCQDSSGEVSCQCQLHPPM, which protein stability index is on record?
Answer: 3.31

Question: Which protein stability index does the source give for KYMPHLCQDSSGEVSCQCQLHEPR here?
Answer: 3.09

Question: For KYMPHLCQDSSGEVSCQCQLHHPR, which protein stability index is on record?
Answer: 3.14

Question: Which protein stability index does the source give for KYMPHLCQDSSGEVSCQCQLHWPR here?
Answer: 2.05

Question: For KYMPHLCQDSSGEVSCQCQLHSPR, which protein stability index is on record?
Answer: 2.55

Question: Which protein stability index does the source give for KYMPHLCQDSSGEVSCQCQLHVPR here?
Answer: 2.17

Question: Which protein stability index does the source give for KYMPHLCQDSSGEVSCQCQLHDPR here?
Answer: 4.1

Question: With KYMPHLCQDSSGEVSCQCQLHCPR as the variant, how does the protein stability index read?
Answer: 2.47

Question: For KYMPHLCQDSSGEVSCQCQLHAPR, which protein stability index is on record?
Answer: 2.66

Question: For KYMPHLCQDSSGEVSCQCQLHIPR, which protein stability index is on record?
Answer: 2.03

Question: For KYMPHLCQDSSGEVSCQCQLHMPR, which protein stability index is on record?
Answer: 2.51

Question: For KYMPHLCQDSSGEVSCQCQLHLPR, which protein stability index is on record?
Answer: 2.73

Question: For KYMPHLCQDSSGEVSCQCQLHYPR, which protein stability index is on record?
Answer: 2.45

Question: Which protein stability index does the source give for KYMPHLCQDSSGEVSCQCQLHNPR here?
Answer: 3.16

Question: For KYMPHLCQDSSGEVSCQCQLHKPR, which protein stability index is on record?
Answer: 2.43

Question: Which protein stability index does the source give for KYMPHLCQDSSGEVSCQCQLHGPR here?
Answer: 3.29

Question: Which protein stability index does the source give for KYMPHLCQDSSGEVSCQCQLHTPR here?
Answer: 2.49

Question: With KYMPHLCQDSSGEVSCQCQLHRPR as the variant, how does the protein stability index read?
Answer: 2.62

Question: Which protein stability index does the source give for KYMPHLCQDSSGEVSCQCQLHQPR here?
Answer: 2.64

Question: For KYMPHLCQDSSGEVSCQCQLHFPR, which protein stability index is on record?
Answer: 2.41

Question: Which protein stability index does the source give for KYMPHLCQDSSGEVSCQCQYHPPR here?
Answer: 2.05

Question: For KYMPHLCQDSSGEVSCQCQNHPPR, which protein stability index is on record?
Answer: 2.56

Question: Which protein stability index does the source give for KYMPHLCQDSSGEVSCQCQAHPPR here?
Answer: 2.37

Question: With KYMPHLCQDSSGEVSCQCQKHPPR as the variant, how does the protein stability index read?
Answer: 2.04

Question: With KYMPHLCQDSSGEVSCQCQFHPPR as the variant, how does the protein stability index read?
Answer: 2.13

Question: Which protein stability index does the source give for KYMPHLCQDSSGEVSCQCQTHPPR here?
Answer: 2.12

Question: Which protein stability index does the source give for KYMPHLCQDSSGEVSCQCQDHPPR here?
Answer: 2.73

Question: With KYMPHLCQDSSGEVSCQCQMHPPR as the variant, how does the protein stability index read?
Answer: 2.73

Question: For KYMPHLCQDSSGEVSCQCQVHPPR, which protein stability index is on record?
Answer: 2.17

Question: For KYMPHLCQDSSGEVSCQCQGHPPR, which protein stability index is on record?
Answer: 1.85

Question: Which protein stability index does the source give for KYMPHLCQDSSGEVSCQCQWHPPR here?
Answer: 1.82

Question: With KYMPHLCQDSSGEVSCQCQSHPPR as the variant, how does the protein stability index read?
Answer: 2.49

Question: With KYMPHLCQDSSGEVSCQCQQHPPR as the variant, how does the protein stability index read?
Answer: 2.34

Question: For KYMPHLCQDSSGEVSCQCQHHPPR, which protein stability index is on record?
Answer: 3.1

Question: With KYMPHLCQDSSGEVSCQCQPHPPR as the variant, how does the protein stability index read?
Answer: 3.73

Question: Which protein stability index does the source give for KYMPHLCQDSSGEVSCQCQIHPPR here?
Answer: 2.79

Question: Which protein stability index does the source give for KYMPHLCQDSSGEVSCQCQCHPPR here?
Answer: 2.44

Question: For KYMPHLCQDSSGEVSCQCQEHPPR, which protein stability index is on record?
Answer: 3.1

Question: Which protein stability index does the source give for KYMPHLCQDSSGEVSCTCQLHPPR here?
Answer: 1.81

Question: With KYMPHLCQDSSGEVSCYCQLHPPR as the variant, how does the protein stability index read?
Answer: 1.76

Question: For KYMPHLCQDSSGEVSCHCQLHPPR, which protein stability index is on record?
Answer: 1.74

Question: For KYMPHLCQDSSGEVSCMCQLHPPR, which protein stability index is on record?
Answer: 3.13

Question: Which protein stability index does the source give for KYMPHLCQDSSGEVSCPCQLHPPR here?
Answer: 2.21

Question: For KYMPHLCQDSSGEVSCLCQLHPPR, which protein stability index is on record?
Answer: 2.17

Question: With KYMPHLCQDSSGEVSCWCQLHPPR as the variant, how does the protein stability index read?
Answer: 2.6

Question: With KYMPHLCQDSSGEVSCRCQLHPPR as the variant, how does the protein stability index read?
Answer: 2.35

Question: For KYMPHLCQDSSGEVSCNCQLHPPR, which protein stability index is on record?
Answer: 1.47

Question: With KYMPHLCQDSSGEVSCVCQLHPPR as the variant, how does the protein stability index read?
Answer: 2.44

Question: For KYMPHLCQDSSGEVSCICQLHPPR, which protein stability index is on record?
Answer: 1.76

Question: Which protein stability index does the source give for KYMPHLCQDSSGEVSCSCQLHPPR here?
Answer: 1.33

Question: With KYMPHLCQDSSGEVSCKCQLHPPR as the variant, how does the protein stability index read?
Answer: 3.52

Question: With KYMPHLCQDSSGEVSCQCGLHPPR as the variant, how does the protein stability index read?
Answer: 2.81

Question: For KYMPHLCQDSSGEVSCQCPLHPPR, which protein stability index is on record?
Answer: 3.84

Question: With KYMPHLCQDSSGEVSCQCVLHPPR as the variant, how does the protein stability index read?
Answer: 1.96

Question: With KYMPHLCQDSSGEVSCQCLLHPPR as the variant, how does the protein stability index read?
Answer: 2.12

Question: With KYMPHLCQDSSGEVSCQCHLHPPR as the variant, how does the protein stability index read?
Answer: 1.52

Question: For KYMPHLCQDSSGEVSCQCALHPPR, which protein stability index is on record?
Answer: 2.45

Question: For KYMPHLCQDSSGEVSCQCFLHPPR, which protein stability index is on record?
Answer: 2.71

Question: For KYMPHLCQDSSGEVSCQCNLHPPR, which protein stability index is on record?
Answer: 2.63

Question: For KYMPHLCQDSSGEVSCQCELHPPR, which protein stability index is on record?
Answer: 3.08

Question: Which protein stability index does the source give for KYMPHLCQDSSGEVSCQCSLHPPR here?
Answer: 2.5

Question: For KYMPHLCQDSSGEVSCQCMLHPPR, which protein stability index is on record?
Answer: 2.13

Question: For KYMPHLCQDSSGEVSCQCWLHPPR, which protein stability index is on record?
Answer: 2.48

Question: For KYMPHLCQDSSGEVSCQCDLHPPR, which protein stability index is on record?
Answer: 2.25

Question: For KYMPHLCQDSSGEVSCQCYLHPPR, which protein stability index is on record?
Answer: 2.71

Question: Which protein stability index does the source give for KYMPHLCQDSSGEVSCQCTLHPPR here?
Answer: 2.36

Question: Which protein stability index does the source give for KYMPHLCQDSSGEVSCQCILHPPR here?
Answer: 2.15

Question: With KYMPHLCQDSSGEVSCQCKLHPPR as the variant, how does the protein stability index read?
Answer: 2.07

Question: For KYMPHLCQDSSGEVSCQCCLHPPR, which protein stability index is on record?
Answer: 2.07

Question: With KYMPHLCQDSSGEVSCQCQLTPPR as the variant, how does the protein stability index read?
Answer: 3.51

Question: For KYMPHLCQDSSGEVSCQCQLKPPR, which protein stability index is on record?
Answer: 2.7

Question: With KYMPHLCQDSSGEVSCQCQLQPPR as the variant, how does the protein stability index read?
Answer: 4.58

Question: Which protein stability index does the source give for KYMPHLCQDSSGEVSCQCQLCPPR here?
Answer: 2.65

Question: For KYMPHLCQDSSGEVSCQCQLIPPR, which protein stability index is on record?
Answer: 2.75

Question: With KYMPHLCQDSSGEVSCQCQLDPPR as the variant, how does the protein stability index read?
Answer: 2.6

Question: Which protein stability index does the source give for KYMPHLCQDSSGEVSCQCQLFPPR here?
Answer: 1.63

Question: For KYMPHLCQDSSGEVSCQCQLPPPR, which protein stability index is on record?
Answer: 3.07

Question: Which protein stability index does the source give for KYMPHLCQDSSGEVSCQCQLEPPR here?
Answer: 3.34

Question: Which protein stability index does the source give for KYMPHLCQDSSGEVSCQCQLSPPR here?
Answer: 2.86

Question: Which protein stability index does the source give for KYMPHLCQDSSGEVSCQCQLAPPR here?
Answer: 3.18

Question: For KYMPHLCQDSSGEVSCQCQLLPPR, which protein stability index is on record?
Answer: 1.51

Question: With KYMPHLCQDSSGEVSCQCQLNPPR as the variant, how does the protein stability index read?
Answer: 2.31

Question: Which protein stability index does the source give for KYMPHLCQDSSGEVSCQCQLYPPR here?
Answer: 2.06

Question: Which protein stability index does the source give for KYMPHLCQDSSGEVSCQCQLRPPR here?
Answer: 1.69

Reference: the supplement of paper PMC10567573
